Test results published in paper PMC6354057 (Molecules and Cells, 2019).

Target: the molecule itself
Assay: crystal structure

B1: Histidine triad nucleotide-binding protein (HINT) from Candida albicans (enzyme, UniProt Q59WG0 1-152, looked up)
chain: MASHASCIFCKIIKGEIPSFKLIETAKTYSFLDIQPIAEAHVLIIPKHHGAKLHNIPDDYLSDILPVVKKLTKVLKLDENNTPEGEGYNVLQNNGRIAHQVVDHVHFHLIPKKDEATGLGVGWPAEATDFDKLGKLHEKLKEELAKVDNEKL
- stoichiometry N: 2
